Drawing on article PMC9167920, this text covers stoichiometry N for 1 substance.

The test addresses CTSL-treated SARS-CoV-2 S protein ectodomain SR (cleaved at CS-1, T259/A260, and CS-2, Y636/S637) (SARS-CoV-2) (UniProt P0DTC2). Description: cryo-EM structure.

What is called stoichiometry N is the number of molecules, sites or subunits per partner or assembly. “CTSL-treated SARS-CoV-2 S protein ectodomain SR (cleaved at CS-1, T259/A260, and CS-2, Y636/S637) (from UniProt P0DTC2) (domain or fragment)”: the stoichiometry N came to 3.
